Results from patent publication US20140079722A1, “EXTRACELLULAR TARGETED DRUG CONJUGATES” (CENTROSE, LLC, priority 2011, published 2014).
Ends that are not written are not given here.

What was measured:
[1] = tested on: primary human umbilical vein endothelial cells (HUVEC); assay: In vitro normal cell cytotoxicity; format: cell-based; conditions: Homo sapiens, 72 h
Method: (§1) In vitro normal cell cytotoxicity. The in vitro cytotoxic activity of M53-PEG24-CEN09-106, PEG24-CEN09-106, M53-PEG24-CEN-319, PEG24-CEN-319, proscillaridin and digitoxin against dysadherin positive primary normal human cells and a dysadherin positive human non-small cell lung carcinoma (NSCLC) cell line were tested and compared. The cells used were primary human renal epithelial cells (HREpC), primary human umbilical vein endothelial cells (HUVEC), primary human umbilical artery endothelial cells (HUAEC), and the A549 NSCLC cells. The primary cells were obtained from PromoCell GmbH, Heidelberg, Germany, and the NSCLC cell line A549 was obtained from ATCC. Primary renal epithelial cells were grown in Renal Epithelial Cell Growth Medium 2 (PromoCell GmbH, Heidelberg, Germany). Primary endothelial cells were grown in Endothelial Cell Growth Medium 2 (PromoCell GmbH, Heidelberg, Germany). The NSCLC cell line was grown in RPMI-1640 (HyClone, Thermo Scientific) supplemented with 10% fetal bovine serum. HREpC, HUVEC, HUAEC, and A549 cells were plated in 384 well plates at 1250, 1875, 2500, and 1250 cells/well (respectively) and allowed to incubate for 24 hrs at 37° C., 5% CO2, and 100% humidity. Various concentrations of conjugates M53-PEG24-CEN09-106 and M53-PEG24-CEN-320 and PEG24-CEN09-106 and PEG24-CEN-320 were added to the wells in a total volume of 5 uL of media and the plates were incubated for an additional 72 hrs. After 72 hrs of exposure to agent, cell viability was evaluated using the Cell Titer-Glo Luminescent Cell Viability Assay (Promega, Madison, Wis.) according to the manufacturer's instructions. Luminescence measurements were performed using a Wallac Victor^2 Model 1420-041 assay plate reader (Perkin Elmer, Gaithersburg, Md.). EC50 values for each test agent were determined using GraphPad Prism 5 software.

[2] = tested on: primary human renal epithelial cells (HREpC); assay: In vitro normal cell cytotoxicity; format: cell-based; conditions: 72 h
Method: as §1

[3] = tested on: primary human umbilical artery endothelial cells (HUAEC); assay: In vitro normal cell cytotoxicity; format: cell-based; conditions: Homo sapiens, Endothelial cell, 72 h
Method: as §1

A549 NSCLC cells = assay: In vitro normal cell cytotoxicity study, carcinoma comparator line; format: cell-based; conditions: Homo sapiens, A549, 72 h
Method: as §1, with “The NSCLC cell line was grown in RPMI-1640 (HyClone, Thermo Scientific) supplemented with 10% fetal bovine serum. HREpC, HUVEC, HUAEC, and A549 cells were plated in 384 well plates at 1250, 1875, 2500, and 1250 cells/well (respectively) and allowed to incubate for 24 hrs at 37° C., 5% CO2, and 100% humidity. Various concentrations of conjugates M53-PEG24-CEN09-106 and M53-PEG24-CEN-320 and PEG24-CEN09-106 and PEG24-CEN-320 were added to the wells in a total volume of 5 uL of media and the plates were incubated for an additional 72 hrs.” left out

[4] = tested on: human cell lines H460, A549, A375, PANC1, and H929; assay: In vitro cancer cell cytotoxicity, statements over the cell line panel; format: cell-based; conditions: at the highest concentrations tested
Text: (§2) EDCs were constructed using linker-ready agents PEG24-CEN09-106, PEG24-CEN09-107, PEG24-CEN10-110 and PEG24-CEN-319. As described in Example 1, linker-ready agent PEG24-CEN-319 contain digitoxigenin while the others contain scillarenin. Linker-ready agents PEG24-CEN09-106, PEG24-CEN09-107, PEG24-CEN10-110 all use different linkers. Specifically, PEG24-CEN09-106 and PEG24-CEN09-107 have different sugars in the linker, while PEG24-CEN10-110 contains a longer linker that includes a primary amine.
(§3) All of the cell lines below, except H520, express the Na,K-ATPase with the dysadherin subunit and so present the target of the antibody and drug in close proximity.

A375 = assay: In vitro cancer cell cytotoxicity (CellTiter-Glo cell viability); format: cell-based, human; conditions: A375 cells, 3 days incubation
Text: as §2, §3

PANC1 = assay: as above; format: cell-based, human; conditions: PANC cells, 3 days incubation
Text: as §2, §3

A549 = assay: as above; format: cell-based, human; conditions: A549 cells, 3 days incubation
Text: as §2, §3

[5] = Pharmacokinetics and serum stability, antibody and drug specific ELISA; format: in vivo, Balb/c mice; conditions: Balb/c mice, EDC drug loading of 3
Method: The steroid drug pharmacokinetics of M53-PEG24-CEN09-106 were measured using the drug specific ELISA described below. The comparison between the two ELISA results (antibody concentrations minus drug concentrations) was used to determine the rate of drug breakdown and thus examine M53-PEG24-CEN09-106 stability.
Serum was isolated from blood samples acquired by retro-orbital blood collection at 1, 2, 4, 8, 16, 26, and 40 days post-injection. […] Plasma concentrations of the steroid drug in M53-PEG24-CEN09-106 were measured as follows. Antigen coated ELISA plates were washed (×3) with PBS pH 7, blocked 30 min with PBS pH 7 containing 1% NFDM (PBS+NFDM), and then washed (×3) with PBS, pH 7. Diluted serum samples and standard curves of M53-PEG24-CEN09-106 were prepared in the above blocking buffer and applied to coated wells, incubated 30 min at RT, and the wells were washed (×3) with PBS, pH 7. Biotinylated 25C2E3 (a monoclonal IgG1 antibody specific for the steroid portion of PEG24-CEN09-106 and conjugated to biotin [Thermo Scientific, PN 21911]) was diluted to 100 ng/mL in PBS+NFDM and added (100 uL) to each well, incubated 30 min at RT, and the wells washed (×3) with PBS, pH 7. PNPP at 1 mg/mL in 1M DEA with 50 mM MgCl2, pH 9.8 was added (100 uL per well), and the absorbance at 405 nm was determined using a Wallac Victor^2 Model 1420-041 assay plate reader (Perkin Elmer, Gaithersburg, Md.) every 5 minutes for a total of 6 reads.
For both ELISAs, absorbance values from known standards were plotted as absorbance over time, generating a linear slope for each concentration. The slopes generated were then plotted against the respective concentrations of the standards, creating a second linear plot. The absorbance values for the unknown serum samples were plotted over time, establishing a slope for unknown sample. The linear estimate from the slope versus concentration plot was then used to extrapolate concentrations for each unknown sample based on their slope.
To determine serum stability of the intact EDC (drug release from the antibody over time) in these samples, the ratio of the slopes of serum decay of the drug portion to the serum decay of the antibody portion were calculated.

[6] = Pharmacokinetics with varying drug loading (antigen binding ELISA); format: in vivo; conditions: unconjugated antibody, 1 mg/kg tail vein, SCID beige mice
Method: Serum was isolated from blood samples taken by retro-orbital blood collection at 1 hour, and 1, 2, 3, 6, and 15 days post-injection. Blood was collected into heparin coated tubes followed by centrifugation (5,000×g, 5 minutes) to isolate plasma.
Antigen capture plates that were prepared by coating wells of 96 well clear bottom ELISA plates with CENP018 (SEQ ID NO: 17) conjugated to BSA at 400 ng BSA-peptide conjugate per well in 100 uL of 200 mM carbonate buffer, pH 9.6 overnight at 4° C. Antigen coated ELISA plates were washed (×3) with PBS pH 7, blocked 30 min with PBS pH 7 containing 1% NFDM (PBS+NFDM), and then washed (×3) with PBS, pH 7. […] Goat anti-mouse IgG alkaline phosphatase (cat. number: A1418, Sigma-Aldrich, St. Louis, Mo.) was diluted 1:15,000 in PBS+NFDM and added (100 uL) to each well, incubated 30 min at RT, and the wells washed (×3) with PBS, pH 7. PNPP at 1 mg/mL in 1M DEA with 50 mM MgCl2, pH 9.8 was added (100 uL per well), and the absorbance at 405 nm was determined using a Wallac Victor^2 Model 1420-041 assay plate reader (Perkin Elmer, Gaithersburg, Md.) every 5 minutes for a total of 6 reads. Absorbance values from known antibody concentration standards were used to determine the concentration of antibody in the serum samples.

peptide CENP018 = target: T1, peptide CENP018 (human, not fully specified); assay: immunoaffinity chromatography on CENP018 coupled to SulfoLink resin
T1 construct: also called 17
T1 peptide: PTRAPDAVYTELQC

human dysadherin [7] = target: T2, human dysadherin (human, UniProt Q96DB9 22-178); assay: cell-based or functional assay
T2 chain: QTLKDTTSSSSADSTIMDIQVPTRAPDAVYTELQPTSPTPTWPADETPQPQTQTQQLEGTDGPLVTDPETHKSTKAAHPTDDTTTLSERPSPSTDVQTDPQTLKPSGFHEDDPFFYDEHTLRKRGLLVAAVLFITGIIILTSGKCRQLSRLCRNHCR

human dysadherin [8] = target: T2, human dysadherin; assay: cell-based or functional assay
human dysadherin [9] = target: T2, human dysadherin; assay: cell-based or functional assay

## C[C@H]1O[C@@H](O[C@H]2[C@@H](O)C[C@H](O[C@H]3[C@@H](O)C[C@H](O[C@H]4CC[C@@]5(C)[C@H](CC[C@@H]6[C@@H]5CC[C@]5(C)[C@@H](C7=CC(=O)OC7)CC[C@]65O)C4)O[C@@H]3C)O[C@@H]2C)C[C@H](O)[C@@H]1O [Digitoxin]
[1]
  EC50: 39 nM
[2]
  EC50: 135 nM
[3]
  EC50: 47 nM
A549 NSCLC cells
  EC50: 17 nM

## C[C@@H]1O[C@@H](O[C@@H]2C=C3CC[C@@H]4[C@H](CC[C@]5(C)[C@@H](c6ccc(=O)oc6)CC[C@]45O)[C@@]3(C)CC2)[C@H](O)[C@H](O)[C@H]1O [Proscillaridin]
[1]
  EC50: 5.6 nM
[2]
  EC50: 10 nM
[3]
  EC50: 5.6 nM
A549 NSCLC cells
  EC50: 2.1 nM

B1: M53 (antibody)
heavy: EVQLVESGGGLVQPKGTLKLSCAASGFSFNTHAMNWVRQAPGKSLEWVARTMSKSNNYATYYADSVKDRFIIRADDSQSMLYLQMNNLKTEDTAMYYCVRDDPKRGMDYWGQGTSVTVSSAKTTPPSVYPLAPGSAAQTNSMVTLGCLVKGYFPEPVTVTWNSGSLSSGVHTFPAVLQSDLYTLSSSVTVPSSTWPSETVTCNVAHPASSTKVDKKIE
light: GIVMSQSPSSLAVSVGEKVTMSCKPSQSLLYSRNQKIYLAWYQQKPGQSPKLLIYWASTRESGVPDRFTGSGSGTDFTLIISSVRAEDLAVYYCQQYYNYPLTFGAGTKLELKRADAAPTVSIFPPSSEQLTSGGASVVCFLNNFYPKDINVKWKIDGSERQNGVLNSWTDQDSKDSTYSMSSTLTLTKDEYERHNSYTCEATHKTSTSPIVKSFNR
[4]
  cytotoxicity of antibody alone: inactive
A375
  EC50: > 2000 nM
PANC1
  EC50: > 5000 nM
A549
  EC50: > 5000 nM
[5]; 1 mg/kg tail vein
  serum half-life of the antibody portion: 11.9 days
[5]; 10 mg/kg tail vein
  serum half-life of the antibody portion: 10.3 days
[6]
  serum half-life of detectable (by antigen binding) antibody: approximately 6 days

B2: anti-FXYD5 scFv003 (scFv)
scFv: ECQLVESGGGLVQPKGTLKLSCAASGFSFNTHAMNWVRQAPGKSLEWVARTMSKSNNYATYYADSVKDRFIISRDDSQSMLYLQMNNLKTEDTAMYYCVRDDPKRGMDYWGQGTSVTVSSGGGGSGGGGSGGGGSGIVMSQSPSSLAVSVGEKVTMSCKPSQSLLYSRNQKIYLAWYQQKPGQSPKLLIYWASTRESGVPDRFTGSGSGTDFTLIISSVRAEDLAVYYCQQYYNYPLTFGAGTKLELK
notes: Unconjugated scFv, purified from E. coli lysate on CENP018 resin; also called CENscFv003
Peptide CENP018
  binding result: binds

B3: M53-PEG24-CEN09-106 (antibody, V domains shown)
VH: EVQLVESGGGLVQPKGTLKLSCAASGFSFNTHAMNWVRQAPGKSLEWVARTMSKSNNYATYYADSVKDRFIIRADDSQSMLYLQMNNLKTEDTAMYYCVRDDPKRGMDYWGQGTSVTVSS
VL: GIVMSQSPSSLAVSVGEKVTMSCKPSQSLLYSRNQKIYLAWYQQKPGQSPKLLIYWASTRESGVPDRFTGSGSGTDFTLIISSVRAEDLAVYYCQQYYNYPLTFGAGTKLELKR
modifications: PEG24-CEN09-106 on reduced cysteine thiols; positions not given; PEG24-CEN09-106 (scillarenin 4-amino-xyloside PEG24 maleimide linker-drug) on reduced cysteine thiols; positions not given
Human dysadherin [7]
  EC50, cytotoxicity (CellTiter-Glo cell viability), A375 cells: 0.4 nM
  EC50, cytotoxicity (CellTiter-Glo cell viability), A549 cells: 0.2 nM
  EC50, cytotoxicity (CellTiter-Glo cell viability), H460 cells: 0.3 nM
  EC50, cytotoxicity (CellTiter-Glo cell viability), H929 cells: 0.1 nM
  EC50, cytotoxicity (CellTiter-Glo cell viability), PANC cells: 0.3 nM
Human dysadherin [8]
  EC50, in vitro activity against A549 cells: 1.9 nM
Human dysadherin [9]
  EC50, cytotoxicity, A549 cells (drug alone, combination study): 0.3 nM
